# T1: mouse CD47-IgV-Domain protein (mouse), Q61735
# T1 chain: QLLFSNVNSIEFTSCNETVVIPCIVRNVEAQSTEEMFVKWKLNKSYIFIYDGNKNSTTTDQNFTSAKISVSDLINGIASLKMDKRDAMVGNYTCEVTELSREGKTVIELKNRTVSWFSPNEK
# T2: mouse CD47-IgV-Domain-hIg fusion protein (mouse), Q61735
# T2 chain: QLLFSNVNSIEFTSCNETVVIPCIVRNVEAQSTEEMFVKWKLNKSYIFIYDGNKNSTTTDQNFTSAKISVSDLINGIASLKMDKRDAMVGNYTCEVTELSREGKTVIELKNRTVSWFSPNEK
# Assays:
# [1] = molecular target: human CD47-IgV-Domain protein (human), Q08722; test: MST; human or mouse CD47-IgV-Domain protein labeled with NT-647, about 50 to 200 nM; unlabeled peptides or ligand protein diluted serially; 50 mM Tris, 150 mM NaCl, 10 mM MgCl2, 0.05% Tween-20, 0.5% DMSO, pH 7.5; 30 min at room temperature; 25°C
# Chain of human CD47-IgV-Domain protein (human), Q08722 (Q08722 19-141): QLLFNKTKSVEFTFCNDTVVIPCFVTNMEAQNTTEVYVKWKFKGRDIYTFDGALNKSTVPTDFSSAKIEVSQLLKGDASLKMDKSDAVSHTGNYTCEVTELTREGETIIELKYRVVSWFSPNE
# [2] = molecular target: T1, mouse CD47-IgV-Domain protein (mouse), …; test: as above
# [3] = molecular target: human CD47-IgV-Domain-hIg fusion protein (human), Q08722; test: flow cytometry on cells; competition: CD47-IgV-Domain-hIg (20 nM) incubated with titrating concentrations of peptide in PBS pH 7.4 for 1 hour at 4°C, then on SIRPα-overexpressing CHO cells 30 min at 4°C; PE-conjugated goat anti-human IgG; IC50 from sigmoidal dose response curves
# Chain of human CD47-IgV-Domain-hIg fusion protein (human), Q08722 (Q08722 19-141): as above
# [4] = molecular target: T2, mouse CD47-IgV-Domain-hIg fusion …; test: as above
binder,measurement,setting,value
AWSATWSNYWRH (modifications not checked) [pep-20],Kd,[1],2.91 µM
same,Kd,[2],3.63 µM
same,IC50,[3],24.6 µM
same,IC50,[4],12 µM
